According to the supplement of paper PMC7125110:
± gives the standard error. For part of these data: This sample holds only a part of the variants without activity.

B1: glmS ribozyme (parent)
chain: AUAAAAGCGCCAGAACUACAGAAAUGUAGUUGACGAGGAGGAGGUUUAUCGAAUUUUCGGCGGAUGCCUCCAAA

Tests used:
Conditions in all cases: with glucosamine-6-phosphate
[1] = variants of: B1; assay: kcat; higher = faster cleavage; RNA array
Summary of the method: (§1)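 In situ transcription by E. coli RNA polymerase produced barcoded ribozyme variants on sequenced MiSeq chips, and a hybridised Cy3 probe tracked them at 37 °C. Glucosamine-6-phosphate was flowed in at 40 μM to 10 mM in HEPES/KCl/Mg(OAc)2 buffer. kcat and KM were taken from weighted Michaelis–Menten fits of kobs values from exponential decay fits.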

[2] = variants of: B1; assay: self-cleavage kobs at 40 uM GlcN6P; higher = faster cleavage; RNA array
Summary of the method: as §1

[3] = variants of: B1; assay: self-cleavage kobs at 160 uM GlcN6P; higher = faster cleavage; RNA array
Summary of the method: as §1

[4] = variants of: B1; assay: self-cleavage kobs at 2500 uM GlcN6P; higher = faster cleavage; RNA array
Summary of the method: as §1

[5] = variants of: B1; assay: KM; higher = weaker cofactor use; RNA array
Summary of the method: as §1

[6] = variants of: B1; assay: self-cleavage kobs at 640 uM GlcN6P; higher = faster cleavage; RNA array
Summary of the method: as §1

[7] = variants of: B1; assay: self-cleavage kobs at 10000 uM GlcN6P; higher = faster cleavage; RNA array
Summary of the method: as §1

Variant | kcat [1] [s⁻¹] | self-cleavage kobs at 40 uM GlcN6P [2] [s⁻¹] | self-cleavage kobs at 160 uM GlcN6P [3] [s⁻¹] | self-cleavage kobs at 2500 uM GlcN6P [4] [s⁻¹] | KM [5] [µM] | self-cleavage kobs at 640 uM GlcN6P [6] [s⁻¹] | self-cleavage kobs at 10000 uM GlcN6P [7] [s⁻¹]
U54G C61G | 1.78e-05 ± 5.8e-06 | < 1e-05 |  |  |  |  | 
A6C G37U | < 1e-05 | < 1e-05 |  |  |  |  | 
C50G G62A | 0.000121 ± 5.5e-05 | 3.58e-05 ± 1.1e-05 | 0.000128 ± 2.4e-05 | 0.000168 ± 3.3e-05 |  |  | 
G29C C71U | 0.00146 ± 0.0004 | 6.23e-05 ± 7.6e-06 | 0.000119 ± 1.8e-05 | 0.000805 ± 9.7e-05 | 1590 ± 700 | 0.000356 ± 4.9e-05 | 0.00143 ± 0.00015
U46A G66C | 0.00211 ± 0.0008 | 5.47e-05 ± 1.7e-05 | 0.000161 ± 4.3e-05 | 0.000776 ± 0.00018 |  | 0.00053 ± 0.00011 | 0.00237 ± 0.00038
C58U C67G | 3.65e-05 ± 2.5e-06 |  |  | 3.68e-05 ± 1.4e-05 |  | 3.77e-05 ± 1.5e-05 | 3.45e-05 ± 9.2e-06
G37U C61A | 1.07e-05 ± 1.5e-06 |  |  |  |  |  | < 1e-05
G60U G66U | < 1e-05 |  | < 1e-05 |  |  | < 1e-05 | < 1e-05
G29U C67A | 0.000685 ± 0.00017 | 5.58e-05 ± 7.8e-06 | 9.85e-05 ± 1.4e-05 | 0.000437 ± 5.6e-05 | 812 ± 370 | 0.000276 ± 3.9e-05 | 0.000787 ± 8.4e-05
A6U U56A | 0.000103 ± 7e-06 |  |  | 5.83e-05 ± 9e-06 | 1590 ± 350 | 3.39e-05 ± 1e-05 | 9.06e-05 ± 9.5e-06
U47A U56G | 0.0204 ± 0.0071 | 0.000264 ± 4.1e-05 | 0.000981 ± 0.00018 | 0.0064 ± 0.0017 | 3000 ± 1300 | 0.00418 ± 0.00053 | 0.0194 ± 0.0038
A15G U47G | 0.00418 ± 0.0015 | 0.000326 ± 5.4e-05 | 0.000812 ± 0.00016 | 0.00298 ± 0.00072 |  | 0.00171 ± 0.00031 | 0.00738 ± 0.0014
C11A A36U G37C | < 1e-05 | < 1e-05 |  |  |  |  | 
U65G C67G | 0.00141 ± 6.7e-05 | 3.46e-05 ± 6.7e-06 | 0.00012 ± 1.6e-05 | 0.00082 ± 0.00011 | 1630 ± 120 | 0.000419 ± 4.6e-05 | 0.00122 ± 0.00014
G32A G41U | 0.000608 ± 0.00022 |  |  | 0.000125 ± 2e-05 |  | 5.48e-05 ± 9e-06 | 0.00037 ± 5.5e-05
A53C A64U | < 1e-05 | < 1e-05 |  |  |  |  | 
A14C G26A | 0.00194 ± 0.00022 | 6.7e-05 ± 1.7e-05 |  | 0.00142 ± 0.00041 | 1030 ± 190 | 0.000887 ± 0.00023 | 0.00166 ± 0.00037

Variant | kcat [1] [s⁻¹] | self-cleavage kobs at 40 uM GlcN6P [2] [s⁻¹] | self-cleavage kobs at 160 uM GlcN6P [3] [s⁻¹] | self-cleavage kobs at 2500 uM GlcN6P [4] [s⁻¹] | KM [5] [µM] | self-cleavage kobs at 640 uM GlcN6P [6] [s⁻¹] | self-cleavage kobs at 10000 uM GlcN6P [7] [s⁻¹]
C10A C58G | 1.34e-05 ± 2.4e-06 |  |  |  |  |  | 
A12U G32U | 0.000501 ± 4.8e-05 |  | 2.63e-05 ± 1.2e-05 | 0.000196 ± 2.1e-05 | 4270 ± 690 | 6.09e-05 ± 8.4e-06 | 0.000345 ± 3.4e-05
A53U U56A | 0.00699 ± 0.0012 | 0.000172 ± 2.1e-05 | 0.000573 ± 8e-05 | 0.00313 ± 0.00052 | 1820 ± 450 | 0.00169 ± 0.0002 | 0.00667 ± 0.00065
A6U U31A U47G C50A A64G C68U | 2.33e-05 ± 2.2e-06 |  |  |  |  |  | 
U30C G41A | 1.28e-05 ± 1.8e-06 |  |  |  |  | < 1e-05 | 
U46C A53G | 0.00366 ± 0.0005 | 8.69e-05 ± 1.5e-05 | 0.000402 ± 6.7e-05 | 0.0025 ± 0.00035 | 1430 ± 280 | 0.00119 ± 0.00015 | 0.00272 ± 0.00067
C11U G29A | 0.000628 ± 0.00013 |  |  | 0.000194 ± 3e-05 | 4190 ± 1400 | 9.17e-05 ± 1.1e-05 | 0.000474 ± 5.6e-05
U56G G66C | 0.000388 ± 2.1e-05 |  |  | 0.000244 ± 4.9e-05 | 1800 ± 300 | 9.51e-05 ± 3.1e-05 | 0.000325 ± 3.9e-05
U56G C58A | 0.000993 ± 0.00023 |  |  | 0.000312 ± 3.6e-05 | 6930 ± 2300 | 7.48e-05 ± 1.1e-05 | 0.000556 ± 7.1e-05
A12U C68G | 0.000191 ± 2.7e-05 |  | 5.38e-05 ± 6.4e-06 | 0.00016 ± 1.2e-05 | 624 ± 230 | 8.22e-05 ± 7.3e-06 | 0.000186 ± 1.6e-05
A6U U49A | < 1e-05 |  | < 1e-05 |  |  |  | < 1e-05
A15G A36U | < 1e-05 |  | < 1e-05 |  |  | < 1e-05 | 
U30C A53U | 0.000197 ± 3.1e-05 |  |  | 0.000158 ± 1.5e-05 | 1290 ± 540 | 5.5e-05 ± 1e-05 | 0.000159 ± 1.8e-05
C10A U31G | < 1e-05 |  |  | < 1e-05 |  | < 1e-05 | 
G40A G59U | 1.46e-05 ± 2.7e-06 | < 1e-05 | < 1e-05 |  |  |  | 
U46A C70A | 0.000184 ± 2.2e-05 |  |  | 0.000146 ± 2.7e-05 | 633 ± 260 | 0.000115 ± 2.6e-05 | 0.000167 ± 2.9e-05
